Assay results from the nanobody polyreactivity screen of Harvey et al. (2022).

Experiment: yeast display, Sf9 membrane polyspecificity reagent, FACS + sequencing; frameworks hold sequencing errors
In short: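 Synthetic nanobody libraries on Saccharomyces cerevisiae BJ5465 were galactose-induced for 36–48 hours, stained 1 hour at 4 °C with 10% biotinylated, detergent-solubilized Sf9 membrane reagent and enriched on streptavidin microbeads. FACS then separated cells into low and high (top ~1%) gates by anti-HA (expression) and streptavidin (reagent binding) fluorescence. Genes were colony-PCR amplified, MiSeq 2 × 250 sequenced and CDR-length filtered. A clone's polyreactivity label is that of its gate of origin.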

Sequence: QVQLVESGGGLVQAGGRLRLSCAASGRIFYTNYMGWYRHAPGKERELVAAIRSVSTYYADSVKGRFTISRDNAKNTVYLHMNSLNPEDTAVYYCNALRTNRYDYWGQGTQVTVSS
- polyreactivity (PSR sort gate): high polyreactivity

Sequence: QVQLVESGGGLVQAGGRLRLSCAASGRIFYTYTMGWYRQAPGKERELVATITDGTRTNYADSVKVRFTISRDNAKITVYLQMNSLKHEDTAVYYCNAAGRWHDLYRINYDYWGQGTQVTVSS
- polyreactivity (PSR sort gate): low polyreactivity

Sequence: QVQLVESGGGLVQAGGRLRLSCAASGRIISHYAMGWYRQAPGKEWELVAAISRSGGSTYYADSVKGRFTLSRDNAKNTVYLQMNSLKPEDTAVYYCAARSWPNIRCHDYWGQGTQVTVSS
- polyreactivity (PSR sort gate): high polyreactivity

Sequence: QVQLVESGGGLVQAGGRLRLSCAASGRIYGLYAMGWYRQAPGKERELVAAITLSGDGTDYADSVKGRFTISRDNAKNTVYLQMTSLKPDDTAVYYCAKVGQYWWNMDYWGQGTQVTVSS
- polyreactivity (PSR sort gate): low polyreactivity

Sequence: QVQLVESGGGLVQAGGRLRLSCAASGRTFIANVMGWYIQAPGKERELVAAITSGGGTSYADSVKGRFTISRDNAKNTVYLQMNSLKPEDTAVYYCNADGYLAERFVIRLDEYRDYDYWGQGTQVTVSS
- polyreactivity (PSR sort gate): low polyreactivity

Sequence: QVQLVESGGGLVQAGGRLRLSCAASGRTFIGYAMGWSRQAPGKERELVAAISSTGGSTYYADSVKGRFTISRDNAKNTVYLQMNSLKPEDTAVYYCATDADRPPRTPDISYVSNFDYWGQGTQVTVSS
- polyreactivity (PSR sort gate): low polyreactivity

Sequence: QVQLVESGGGLVQAGGRLRLSCAASGRTFRKYTMGWYRQAPGKEREFDAAITYSGGSTYYADSVKGRFTISRDNAKNTVYLQMNSLKPEDTAVYYCVTRGGYYLYYSYYYWGQGTQVTVSS
- polyreactivity (PSR sort gate): high polyreactivity

Sequence: QVQLVESGGGLVQAGGRLRLSCAASGRTFRLYAMGWYRQAPGKERELVAAINYSDGSTYYADSVKGRFTISRDIAKNTVYLQMNSLKPEDSAVSYCAADLQSGYTIPTSIVEYHPFDYWGQGTQVTVSS
- polyreactivity (PSR sort gate): low polyreactivity

Sequence: QVQLVESGGGLVQAGGRLRLSCAASGRTFTPYTMGWYIKAPGKEREFVAAIRTGGNTYYADSVKGRFTISRDNAKNTVYLQMNSLKPEDTAVFYCAARDRIGYRLYYWGQGTQVTVSS
- polyreactivity (PSR sort gate): high polyreactivity

Sequence: QVQLVESGGGLVQAGGRLRLSCAASGRTFYKNARGWYREAPGKERELVAAITNRGGSTYYADSVKGRFTISRDNAKNTVYLQMNSLKPEDTAVYYCNARRGSTGNVARWHYDYWGQGTQVTVSS
- polyreactivity (PSR sort gate): low polyreactivity

Sequence: QVQLVESGGGLVQAGGRLRLSCAASGRTFYTNTMGWYRQAPGKERELVAAISYSGSSTYYADSVKGRFTISRDNAKNTGYLQINSLKPEDTAVYYCNAVRYYRYYYWGQGTQVTVSS
- polyreactivity (PSR sort gate): low polyreactivity

Sequence: QVQLVESGGGLVQAGGRLRLSCAASGRTFYYNAMGWYREAPGKERELVATIGGSTYYADSVKGRFTISRDNAKNTVYLQMNSLIPEDTAVYYCAASRYSHYPRYRLTCFYYWGQGTQVTVSS
- polyreactivity (PSR sort gate): high polyreactivity

Sequence: QVQLVESGGGLVQAGGRLRLSCAASGRTFYYYPMGWYRQAPGKERELVAAISWSGGSTYYADSVKGRCTISRDNAKNTVYLQLNSLKPDDTAVNYCNAVGSKGYRMDYWGQGTQVTVSA
- polyreactivity (PSR sort gate): high polyreactivity

Sequence: QVQLVESGGGLVQAGGRLRLSCAASGRTIVRYVIGWYRQAPGKERELVARISFSSGSTYYADSVKGRFTISRDNAKNTVYVQMNSLIPEDTAVYYCAASPDVSFRRFSRVVSGDYWGQGTKVTVSS
- polyreactivity (PSR sort gate): high polyreactivity

Sequence: QVQLVESGGGLVQAGGRLRLSCAASGRTLFYYARGWYRQEPGKEREFVPAITWSGVSTSYADSVKGRFTISRDNAKNTVYLQLNSLKPEDTAVYYCAARGYRPRLGKWLDYNYWGQGTQVTVSS
- polyreactivity (PSR sort gate): high polyreactivity

Sequence: QVQLVESGGGLVQAGGRLRLSCAASGRTLYRYAMGWYRQAPGKERELVATIRRSGGSTNYADSVKGRFTISRDNAKNTVYLQMNSLKPEDTAVYYCAAVSFKPEYYYWGQGTQVTVSS
- polyreactivity (PSR sort gate): high polyreactivity

Sequence: QVQLVESGGGLVQAGGRLRLSCAASGRTVNQYAMGWYRQAPGKERELVAAISWSGGRTYYADSVKGRFTISRDNDKNTDYLQMNSLKPEDTAVYYCNKLTRDGRKEDYWGQGTQVTVSS
- polyreactivity (PSR sort gate): high polyreactivity
